Entries after “also recorded” stand apart in the source; their conditions may differ.
Experiments:
[1] = tested on: Adiponectin KO (Ad−/−) mice; test: Urine albumin/creatinine ratio in treated adiponectin KO mice; type: in vivo, mouse; settings: AdKO mice at 4 months of age; gAd 25 μg twice daily for 10 days (gAd or fAd)
Description: Adiponectin administration and animal studies: The mice were treated with 25 μg of recombinant human globular domain adiponectin (gAd; PepROTech, Rocky Hill, N.J.) subcutaneously twice daily for 10 consecutive days. The control animals were given PBS alone. 24-hour urines from each mouse were collected twice: one week before the injections and on the last day of the injections. The urine albumin and creatinine were measured with a mouse Albuwell ELISA kit and a Creatinine Companion kit (Exocell, Philadelphia, Pa.) (25,26). The mice were sacrificed five hours after the final gAd injection under anesthesia. Portions of kidney cortex were fixed in buffered formalin and embedded in paraffin. A portion of kidney cortical tissue was cut into 1 mm^3 pieces and fixed in 2.5% glutaraldehyde
Interventional animal studies: The mice were treated with 25 μg of recombinant human globular domain adiponectin gAd (PepROTech, Rocky Hill, N.J.), administered 25 μg/mouse twice a day for 10 consecutive days or full-length adiponectin (fAd) was administered using an AAV vector (AAV2/8 CMV fAd virus 4×1011 GC/mouse for 10 days). A separate group of Ad−/− mice were treated with 5-aminoimidazole-4-carboxamide-1-beta-D-ribonucleoside (AICAR) with a single i.p. dose of 300 mg/kg. The control animals were given PBS alone or control AAV. 24-hour urines from each mouse were collected before treatment and on the last day of the treatment period. The urine albumin and creatinine were measured with a mouse Albuwell ELISA kit and a Creatinine Companion kit (Exocell, Philadelphia, Pa.) (26, 25). As an index of oxidant stress timed urine collections were also analyzed for hydrogen peroxide by Amplex red assay (Invitrogen/Molecular Probes, Carlsbad, Calif.) following the manufacturer's protocol. Portions of liver, muscle and kidney was snap-frozen in liquid nitrogen for RNA isolation. An additional aliquot of normal kidney was frozen in OCT for immunofluorescent staining. […]

[2] = tested on: AMPK; test: Glomerular AMPK activity (p-AMPKα immunostain) in adiponectin KO mouse kidney; type: in vivo; settings: adiponectin KO mice, adiponectin (gAd) treatment
Description: Immunohistochemistry: Immunocytochemistry was performed as described previously (30). Differentiated podocytes seeded on coverslips were serum-Starved overnight and globular adiponectin was added. After 24 hours of adiponectin introduction, cells were fixed in 3.7% paraformaldehyde. Incubation with primary antibody p-AMPKα at 1:50 dilution (Cell Signaling Technology) was performed in blocking solution at 4° C. overnight Cells were then incubated with secondary anti rabbit IgG conjugated to an immunofluorescent dye (Alexa 594, Invitrogen, Carisbad, Calif.) for 30 minutes at room temperature. Nuclear stain was performed with Hoechst 33342 (Invitrogen). Fluorescence pictures were obtained using confocal laser fluorescence microscope (LSM-510, Carl Zeiss, Jena, Germany). Immunostaining of paraffin-embedded mouse kidney was performed as described previously (26) with p-AMPKα (Thr172) rabbit monoclonal antibody (31). Quantitation of p-AMPKα positive cells was performed on 50 glomeruli from 4 mice in each group.
Immunohistochemistry: Immunocytochemistry was performed as described previously (30). […] Fluorescence pictures were obtained using confocal laser fluorescence microscope (LSM-510, Carl Zeiss, Jena, Germany). […] Quantitation of p-AMPKa positive cells was performed on 50 glomeruli from 4 mice in each group. […] Images were captured by confocal laser fluorescence microscope.

[3] = tested on: Nox4; test: Nox4 protein in cultured podocytes (immunoblot, confocal); type: cell-based, mouse; settings: adiponectin for 16 h

B1: adiponectin: 30 kDa adipocyte-secreted protein; in the first series of tests the recombinant globular domain was used, later gAd or fAd (protein, UniProt Q15848 19-244, looked up)
Adiponectin: ETTTQGPGVLLPLPKGACTGWMAGIPGHPGHNGAPGRDGRDGTPGEKGEKGDPGLIGPKGDIGETGVPGAEGPRGFPGIQGRKGEPGEGAYVYRSAFSVGLETYVTIPNMPIRFTKIFYNQQNHYDGSTGKFHCNIPGLYYFAYHITVYMKDVKVSLFKKDKAMLFTYDQYQENNVDQASGSVLLHLEVGDQVWLQVYGEGERNGLYADNDNDSTFTGFLLYHDTN
- Urine albumin/creatinine ratio (albuminuria) [1]: normalized albuminuria levels; also recorded: restores normal albuminuria
- AMPK activity in glomerular podocytes (p-AMPKα positive cells per glomerulus) [2]: improved; also recorded: increased
- Podocyte Nox4 protein [3]: sufficient to suppress podocyte Nox4

From patent publication US20100056445A1, “ADIPONECTIN FOR THE TREATMENT AND DIAGNOSIS OF ALBUMINURIA” (THOMAS JEFFERSON UNIVERSITY, priority 2006, published 2010)
